Assay results: US20140249076A1, “AMYLIN-CALCITONIN CHIMERIC PEPTIDES CONJUGATED TO DURATION ENHANCING MOIETIES” (AMYLIN PHARMACEUTICALS, LLC, priority 2011, published 2014)
Numbered stars: 1 amine (or outer) side, 2 acyl side, 3 side chain; on linkers, the order of the positions; unused ones are H or OH. Side chains are listed from the residue outwards. Ends that are not written are not given here. γGlu = O=C(O)[C@H](CCC(=O)[*:2])N[*:1]

B1: Cmpd 17 (peptide)
peptide: KCNTATCALQRLAQELHRLQTYPRTNVGSNTY-NH2
modifications: ends and bridges not checked
B2: Cmpd 186 ([K^18ε-(γ-Glu(Nα-C16-Chain))]-Cmpd 17) (peptide)
peptide: KCNTATCALQRLAQELHK([γGlu-C16‑Chain])LQTYPRTNVGSNTY-NH2
modifications: ends and bridges not checked
B3: Cmpd 192 ([K^1ε-(γ-Glu(Nα-C16-Chain))]-Cmpd 17) (peptide)
peptide: K([γGlu-C16‑Chain])CNTATCALQRLAQELHRLQTYPRTNVGSNTY-NH2
modifications: ends and bridges not checked
B4: Cmpd 193 ([K^11ε(γ-Glu(Nα-C16-Chain))]-Cmpd 17) (peptide)
peptide: KCNTATCALQK([γGlu-C16‑Chain])LAQELHRLQTYPRTNVGSNTY-NH2
modifications: ends and bridges not checked
B5: Cmpd 187 ([K^21ε-(γ-Glu(Nα-C16-Chain))]-Cmpd 17) (peptide)
peptide: KCNTATCALQRLAQELHRLQK([γGlu-C16‑Chain])YPRTNVGSNTY-NH2
modifications: ends and bridges not checked
B6: Cmpd 188 ([K^24ε-(γ-Glu(Nα-C16-Chain))]-Cmpd 17) (peptide)
peptide: KCNTATCALQRLAQELHRLQTYPK([γGlu-C16‑Chain])TNVGSNTY-NH2
modifications: ends and bridges not checked
B7: Cmpd 189 ([K^26ε-(γ-Glu(Nα-C16-Chain))]-Cmpd 17) (peptide)
peptide: KCNTATCALQRLAQELHRLQTYPRTK([γGlu-C16‑Chain])VGSNTY-NH2
modifications: ends and bridges not checked
B8: Cmpd 195 (Kε-(γ-Glu(Nα-C16-Chain))-Cmpd 17) (peptide)
peptide: K([γGlu-C16‑Chain])KCNTATCALQRLAQELHRLQTYPRTNVGSNTY-NH2
modifications: ends and bridges not checked

Columns and labels:
[1] = target: rat C1a calcitonin receptor (rat) (UniProt P32214); assay: displacement of 125I-human calcitonin from C1a-HEK cell membranes
[2] = target: CGRP receptor (SK-N-MC cell membranes) (UniProt Q16602); assay: displacement of 125I-human CGRP from SK-N-MC cell membranes
Sequence of CGRP receptor (SK-N-MC cell membranes) (Q16602 23-461, chain 1 of 2): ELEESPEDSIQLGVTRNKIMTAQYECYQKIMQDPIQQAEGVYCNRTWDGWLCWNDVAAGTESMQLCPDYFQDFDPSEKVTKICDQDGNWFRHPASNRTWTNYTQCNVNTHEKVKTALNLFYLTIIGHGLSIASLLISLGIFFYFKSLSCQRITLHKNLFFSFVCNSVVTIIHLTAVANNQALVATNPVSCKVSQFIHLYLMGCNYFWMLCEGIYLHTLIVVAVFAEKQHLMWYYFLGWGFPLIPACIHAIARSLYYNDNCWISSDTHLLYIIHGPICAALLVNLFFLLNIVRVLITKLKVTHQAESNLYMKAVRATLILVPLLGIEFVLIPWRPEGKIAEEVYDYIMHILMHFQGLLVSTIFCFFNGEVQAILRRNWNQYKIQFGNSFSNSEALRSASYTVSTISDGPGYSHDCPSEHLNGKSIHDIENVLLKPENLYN
Sequence of CGRP receptor (SK-N-MC cell membranes) (O60894 27-148, chain 2 of 2, further chain): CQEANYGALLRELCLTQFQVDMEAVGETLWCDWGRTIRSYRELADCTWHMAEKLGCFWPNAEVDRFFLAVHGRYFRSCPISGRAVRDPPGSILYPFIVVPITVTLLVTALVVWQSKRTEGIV

[3] = target: amylin receptor (RNA membranes); assay: displacement of 125I-rat amylin from RNA membranes

Binder	IC50 [1]	IC50 [2]	IC50 [3]
B1	0.095 nM		
B2	1.07 nM	26.3 nM	0.806 nM
B3	0.07 nM		
B4	0.168 nM	46.5 nM	0.73 nM
B5	0.151 nM	0.77 nM	0.446 nM
B6	0.898 nM	100 nM	1.61 nM
B7	1.49 nM	75 nM	4.01 nM
B8	0.046 nM		
